Test results published in the supplement of paper PMC12338614.
± gives the uncertainty stated by the source.

B1: library; numbered along this chain (parent)
chain: MEVVDPQQLGMFTEGELMSVGMDTFIHRIDSTEVIYQPRRKRAKLIGKYLMGDLLGEGSYGKVKEVLDSETLCRRAVKILKKKKLRRIPNGEANVKKEIQLLRRLRHKNVIQLVDVLYNEEKQKMYMVMEYCVCGMQEMLDSVPEKRFPVCQAHGYFCQLIDGLEYLHSQGIVHKDIKPGNLLLTTGGTLKISDLGVAEALHPFAADDTCRTSQGSPAFQPPEIANGLDTFSGFKVDIWSAGVTLYNITTGLYPFEGDNIYKLFENIGKGSYAIPGDCGPPLSDLLKGMLEYEPAKRFSIRQIRQHSWFRKKHPPAEAPVPIPPSPDTKDRWRSMTVVPYLEDLHGADEDEDLFDIEDDIIYTQDFTVPGQVPEEEASHNGQRRGLPKAVCMNGTEAAQLSTKSRAEGRAPNPARKACSASSKIRRLSACKQQ

Variants of: B1
Assay: STK11 functional score (HeLa growth suppression), rescaled enrichment; synonymous median = 1, nonsense median = 0 (normalised score)
Details: with HeLa; variant type: missense
Outline: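 In HeLa, Bxb1 integrated POPCode codon-randomised libraries of codon-optimised STK11 at an AAVS1 landing pad; three regions were each transfected three times. Integrants, marked as BFP-negative and mCherry-positive, were FACS-sorted 4–5 days after electroporation and expanded for about two weeks before tiled gDNA amplicons were sequenced on NextSeq (~2 million reads per tile). Each functional score is a post/pre-selection log ratio corrected to wild type, rescaled to the synonymous and nonsense medians, and merged across codons and replicate transfections, with error estimated by bootstrapping.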

| Variant | STK11 functional score |
| --- | --- |
| E396C | 1.26 ± 0.42 |
| H154I | 0.492 ± 0.09 |
| H154Y | 1.26 ± 0.12 |
| H154W | 0.87 ± 0.091 |
| D343Q | 0.992 ± 0.12 |
| D343M | 1.57 ± 0.2 |
| N259C | 1.12 ± 0.42 |
| N259R | 1.13 ± 0.46 |
| N259T | 1.32 ± 0.51 |
| N259Y | 1.1 ± 0.1 |
| Q7Y | 1.22 ± 0.087 |
| M51W | 0.189 ± 0.32 |
| G227D | 1.13 ± 0.47 |
| G227C | 0.981 ± 0.31 |
| G227A | 0.273 ± 0.11 |
| R40W | 1.24 ± 0.38 |
| L400F | 1.46 ± 0.14 |
| V116S | 0.887 ± 0.14 |
| R384S | 1.53 ± 0.26 |
| R384E | 1.53 ± 0.27 |
| V390Q | 1.63 ± 0.28 |

| Variant | STK11 functional score |
| --- | --- |
| L167K | 0.0279 ± 0.15 |
| L167V | 1.15 ± 0.2 |
| L167A | 0.629 ± 0.09 |
| L285T | -0.111 ± 0.11 |
| L285D | -0.216 ± 0.087 |
| E165T | 0.129 ± 0.15 |
| P89E | 1.68 ± 0.19 |
| L245R | -0.0758 ± 0.098 |
| L245E | -0.0467 ± 0.26 |
| N181V | -0.181 ± 0.052 |
| P373F | 1.26 ± 0.47 |
| P373G | 1.53 ± 0.25 |
| P373A | 1.08 ± 0.17 |
| P373I | 1.31 ± 0.18 |
| S213W | 1.14 ± 0.092 |
| S213M | 1.15 ± 0.12 |
| Y292I | 1.09 ± 0.13 |
| Y292V | 0.931 ± 0.12 |
| I360R | 0.694 ± 0.27 |
| H202S | 1.17 ± 0.25 |
| H202D | 0.804 ± 0.38 |

| Variant | STK11 functional score |
| --- | --- |
| E98K | 1.12 ± 0.67 |
| H27M | 1.63 ± 0.12 |
| H27A | 1.19 ± 0.11 |
| H27I | 0.637 ± 0.096 |
| L105V | 0.842 ± 0.15 |
| G370F | 1.5 ± 0.27 |
| G370W | 1.41 ± 0.31 |
| A377K | 1.63 ± 0.28 |
| L282T | 0.466 ± 0.16 |
| E33G | 0.902 ± 0.25 |
| L201H | 1.16 ± 0.3 |
| L201S | 0.759 ± 0.098 |
| L201D | 0.769 ± 0.11 |
| K62V | 1.61 ± 0.2 |
| K62I | 1.35 ± 0.52 |
| A200R | 0.878 ± 0.12 |
| A200L | 0.6 ± 0.26 |
| A410S | 1.4 ± 0.26 |
| A410Y | 1.38 ± 0.37 |
| G233V | 0.47 ± 0.11 |
| G233F | 1.46 ± 0.31 |

| Variant | STK11 functional score |
| --- | --- |
| G233L | 1.57 ± 0.32 |
| I248W | 0.853 ± 0.099 |
| I248R | -0.248 ± 0.13 |
| I248L | 1.05 ± 0.18 |
| I248S | 0.859 ± 0.097 |
| Y166K | 1.56 ± 0.29 |
| Y166W | 0.846 ± 0.087 |
| Y166F | 1.05 ± 0.27 |
| L353C | 1.17 ± 0.72 |
| K269P | 1.26 ± 0.41 |
| S428K | 0.386 ± 0.55 |
| L45W | 1.65 ± 0.16 |
| L45D | 1.34 ± 0.11 |
| P411S | 1.23 ± 0.49 |
| D277I | 1.45 ± 0.31 |
| L72S | 0.585 ± 0.22 |
| Q214P | 0.598 ± 0.18 |
| G394Q | 1.35 ± 0.35 |
| Y340A | 1.56 ± 0.17 |
| Y340V | 1.6 ± 0.27 |
| C158I | 1.51 ± 0.3 |
